According to patent US20100041597A1, “PEPTIDES TARGETED TO PROTEIN KINASE C ISOFORMS AND USES THEREOF” (priority 2005, published 2010):

How the values were obtained:
PKC-βI = PKC-βI (Homo sapiens, UniProt P05771); experiment: ELISA-based competitive binding assay with purified PKC isoform; design: key to Affinity for PKC isoform βI: —: no detectable affinity; Low to very low affinity at 10X or 20X or both PRE concentrations in at least one cell line in the cell extract assay; Low affinity in purified isoform assay.; Moderate affinity at 10X or 20X or both PRE concentrations in at least one cell line in the cell extract assay.; High affinity at 10X or 20X or both PRE concentrations in at least one cell line in the cell extract assay; High affinity in purified isoform assay; conditions: for inhibition at 50 µM / inhibition at 100 µM / inhibition at 200 µM / calculated binding capacity (100-% n) after subtraction of the DMSO apparent binding capacity: purified PKC-βI; for inhibition at 50 µM / inhibition at 100 µM / inhibition at 200 µM: read-out: calculated binding capacity (100-% n) after subtraction of the DMSO apparent binding capacity; for Affinity for PKC isoform βI: Purified isoform, Table 20; for targeting of PKC-βI: purified isoform, Tables 14-19
Experimental: Peptides PRE 1, 2, 3, 4, 5, 6, 7, 8, 9, 10, 11, 12 and 13 (see Table 3) were tested for their ability to interfere with binding of PKC isoform-specific antibodies to their target PKC isoforms using a competitive binding assay and purified PKC isoforms.
Procedure: Competitive binding was assessed using a 96 well plate ELISA-based assay as described below.
Greiner 96 well ELISA plates were coated with the appropriate PKC isoform diluted in PBSN (PBS with Calcium/Magnesium+0.05% Sodium azide w/w). 50 μL/well at 250 ng/mL was used. Control wells contained PBSN only. Plates were incubated overnight at 4° C.
The plates were washed 3 times with 200 μL of dH2O per well, then 100 μL of blocking solution was added per well and the plate incubated for 1 h at 37° C. The washing steps with dH2O were repeated and 50 μL of the appropriate PRE solution (PRE stock solution [20 mM in DMSO] diluted in PBSN) was added and the plate incubated for 1 h at room temperature.
After incubation, 5 μL of 1.1:400 anti-PKC (isoform specific antibody) was added per well (to provide a final concentration of 1:4000). For PKC-epsilon, 1.1:800 dilution was used and for PKC-zeta a 1.1:100 dilution was used due to high and low binding affinity, respectively. The plates were then incubated 1 h at room temperature, followed by washing with dH2O as described above.
50 μL of 1:1000 dilution of Alkaline Phosphatase (AP) conjugated antibody (anti-rabbit for all except zeta, which was anti-goat) was then added and the plate incubated for 1 h at room temperature. Washing with dH2O was then repeated. Finally, 100 μL of pNPP solution in pNPP buffer (2 mM MgCl2, 100 mM Sodium bicarbonate in water, pH 9.8) was added to all wells and incubated for 8 minutes for α, βI, βII ε, and ζ, or for 15-20 mins for […] (until sufficient coloration is observed). The reaction was stopped by addition of Stop solution (2N NaOH) and the absorbance at 405 nm was read on a Galaxy Plate reader.
Controls were PKC without PRE; blank controls, and controls containing the final concentrations of DMSO used for solubilizing the PREs. The non-specific binding capacity related to DMSO was also measured.
The antibodies used were as follows: anti-PKC α (Cat. No. SC-208); anti-PKC βI (Cat. No. SC-209); anti-PKC βII (Cat. No. SC-210); anti-PKC δ (Cat. No. SC-213); anti-PKC ε (Cat. No. SC-214); anti-PKC ζ (Cat. No. SC-216-G) (all from Santa Cruz Biotechnology, Inc.). The AP-conjugated antibodies were obtained from Jackson Immuno Research Laboratories (West Grove, Pa.).
Calculations: The OD values measured at 405 nm represent the free PKC coated per well.
OD405 PKC alone−Blank OD405 of each sample=OD405 coated isoform
(OD405 of sample X/OD405 coated isoform)×100=% n that represents the percentage of X binding compared to control.
100-% n measures the relative binding capacity of X towards the tested isoform.
The apparent binding capacity of the DMSO samples was then subtracted from X binding capacity.
All measurements were made in triplicate and the values in the table represent the averaged calculated binding capacity values after subtraction of the DMSO apparent binding capacity (averaged from 12 values, respectively 10.80, 11.20 and 16.40 corresponding to the concentrations of DMSO used to dilute the […] at 200, 100 and 50 μM respectively). The results allow for quantitative comparison of the binding capacity of each PRE towards an individual isoform within each table, but not among isoforms due to differences in sensitivity of the specific antibodies toward the secondary antibody. This applies particularly to PKC-delta. As noted above, the colour development duration was increased 2-3 times and, as a result, the OD405 measurements may be overestimated for this isoform.

PKC-α = PKC-α (Homo sapiens, UniProt P17252); experiment: Competitive binding assay using cell extracts (Western blot); design: key to Affinity for PKC isoform α: —: no detectable affinity; Low to very low affinity at 10X or 20X or both PRE concentrations in at least one cell line in the cell extract assay; Low affinity in purified isoform assay.; Moderate affinity at 10X or 20X or both PRE concentrations in at least one cell line in the cell extract assay.; High affinity at 10X or 20X or both PRE concentrations in at least one cell line in the cell extract assay; High affinity in purified isoform assay; conditions: for Affinity for PKC isoform α: Cell extract, PRE at 10X, 20X antibody concentration, Table 20
Experimental: Binding efficiency and specificity of the peptides PRE 2, 3, 4, 5, 6, 7, 8, 9, 10, 11, 12 and 13 (see Table 3) was also tested using cytoplasmic extracts from different cell lines expressing appropriate PKC isoforms as described for Example 1. Briefly, the protein cytoplasmic extracts were separated by electrophoresis and transferred onto nitrocellulose membranes by standard Western blotting procedures. The bands on the Western blots were detected with matching primary antibodies and alkaline phosphatase conjugated secondary antibody. The bands were then scanned and the relative density measurements obtained.
This procedure to assess the binding characteristics of the PREs is based on competition binding of the PRE with the primary anti-isoform PKC specific antibodies. The lower the measured band density, the greater the binding of the PRE to the PKC isoform. The PREs were added at 10 and 20 times (10×, 20×) the primary antibody concentration, according to classical competition between antigenic peptide and primary antibody. The following cell lines (obtained from the ATCC) were used: H661—NCI human lung carcinoma NSCLC; MDAMB231—human highly invasive breast cancer cell line from pleural effusion; LS180—human colon adenocarcinoma; LnCAP—human prostate adenocarcinoma; CCD16Lu—human lung fibroblasts; Du145—human prostate carcinoma brain metastasis, and T24—human bladder carcinoma.
In these cases, the 20× band density figures relative to control and 10× values were reliable.

PKC-βI, sequence (P05771 whole entry, canonical isoform): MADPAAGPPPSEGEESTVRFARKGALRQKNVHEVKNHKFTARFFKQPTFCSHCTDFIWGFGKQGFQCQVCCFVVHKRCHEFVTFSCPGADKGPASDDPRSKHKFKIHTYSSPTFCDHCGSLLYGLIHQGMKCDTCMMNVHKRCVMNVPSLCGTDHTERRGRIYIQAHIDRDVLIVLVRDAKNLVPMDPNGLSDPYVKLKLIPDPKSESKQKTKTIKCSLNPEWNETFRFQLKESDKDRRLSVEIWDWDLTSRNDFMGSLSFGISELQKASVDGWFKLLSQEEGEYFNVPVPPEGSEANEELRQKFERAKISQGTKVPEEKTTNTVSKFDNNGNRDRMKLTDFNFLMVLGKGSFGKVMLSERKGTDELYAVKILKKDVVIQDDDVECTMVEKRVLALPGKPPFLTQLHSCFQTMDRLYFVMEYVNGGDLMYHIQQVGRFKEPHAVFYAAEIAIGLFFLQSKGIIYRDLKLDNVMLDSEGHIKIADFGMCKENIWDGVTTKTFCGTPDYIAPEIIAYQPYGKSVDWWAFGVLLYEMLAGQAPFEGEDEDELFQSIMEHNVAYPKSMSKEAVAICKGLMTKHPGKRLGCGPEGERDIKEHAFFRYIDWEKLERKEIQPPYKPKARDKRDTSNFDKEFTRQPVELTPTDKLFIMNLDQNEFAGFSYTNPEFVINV

Row | Substance | inhibition at 50 µM (PKC-βI; PRE 50 μM) | inhibition at 100 µM (PKC-βI; PRE 100 μM) | inhibition at 200 µM (PKC-βI; PRE 200 μM) | Affinity for PKC isoform βI (PKC-βI) | targeting of PKC-βI (PKC-βI) | Affinity for PKC isoform α (PKC-α) | calculated binding capacity (100-% n) after subtraction of the DMSO apparent binding capacity (PKC-βI; PRE 50 μM) | calculated binding capacity (100-% n) after subtraction of the DMSO apparent binding capacity (PKC-βI; PRE 100 μM) | affinity for PKC-α (PKC-α; cell extracts) | calculated binding capacity (100-% n) after subtraction of the DMSO apparent binding capacity (PKC-βI; PRE 200 μM)
1 | Ac-AKGIQEVKGGDAQNLIGISI-NH2 [PRE 3] | 26% | 22.5% | 23% | H | targeted most strongly | H |  |  |  | 
2 | Ac-AKGIQEVKGGKDAQNLIGISI-NH2 [PRE 5] | 0% | 0% | 0% | — |  | M |  |  |  | 
3 | Ac-ISIGILQNADK-NH2 [PRE 7] |  |  |  | — |  | L |  |  |  | 
4 | Ac-KDANQLIGISI-NH2 [PRE 6] |  |  |  | L |  | H/L |  |  |  | 
5 | Ac-KDAQNLIGISI-NH2 [PRE 4, Ac-KDAQNLIGISI-NH2] | 6.02% | 15.7% | 7.46% | L |  | H |  |  | strong affinity for PKC-α | 
6 | Ac-isigilgnadk-NH2 [PRE 9] |  |  |  | L |  | M/L | 11.53 | 8.82 |  | 5.72
7 | ILEDKGGDAQNLIGISI [PRE 8] |  |  |  | — |  | M/L |  |  |  | 
8 | RRKKGGKDFVVKR [PRE 1] |  |  |  | H | targeted most strongly | H |  |  |  | 

Second part, the substance after the results:

Row | inhibition at 50 µM (PKC-βI; PRE 50 μM) | inhibition at 100 µM (PKC-βI; PRE 100 μM) | inhibition at 200 µM (PKC-βI; PRE 200 μM) | Affinity for PKC isoform βI (PKC-βI) | targeting of PKC-βI (PKC-βI) | Affinity for PKC isoform α (PKC-α) | calculated binding capacity (100-% n) after subtraction of the DMSO apparent binding capacity (PKC-βI; PRE 50 μM) | calculated binding capacity (100-% n) after subtraction of the DMSO apparent binding capacity (PKC-βI; PRE 100 μM) | affinity for PKC-α (PKC-α; cell extracts) | calculated binding capacity (100-% n) after subtraction of the DMSO apparent binding capacity (PKC-βI; PRE 200 μM) | Substance
9 |  |  |  | — |  | H/L | 3.77 | 4.35 |  |  | Ac-ISIGILNQADK-NH2 [PRE 10]
10 |  |  |  | — |  | — |  |  |  |  | Ac-KDAQNLI-NH2 [PRE 12]
11 |  |  |  | — |  | M/H |  |  |  |  | Ac-RDAQNLI-NH2 [PRE 13]
12 |  |  |  | — |  | H/L | 9.86 | 14.23 |  | 12.5 | Ac-RDAQNLIGISI-NH2 [PRE 11]
